US20140087995A1 (published 2014)
Each block holds one binder with its values, some of them ahead of it. Numbered stars: 1 amine (or outer) side, 2 acyl side, 3 side chain; on linkers, the order of the positions; unused ones are H or OH. Bridge positions count the residues as written; N and C are the ends. Side chains are listed from the residue outwards. Ends that are not written are not given here. * marks the point of attachment. C20 diacid = O=C(O)CCCCCCCCCCCCCCCCCCC(=O)*; γGlu = O=C(O)[C@H](CCC(=O)[*:2])N[*:1]

How the values were obtained:
[1] = biological target: T1, human amylin receptor (amylin 3(a) receptor: human calcitonin receptor with RAMP-3) (human, UniProt P30988 25-474; O60896 24-148); experiment: SPA competition, displacement of 125I-rat amylin from membranes of BHK cells with the human amylin 3(a) receptor
T1 construct: whole, on cells; the functional assay (Assay IIa) used the whole cells; also called hAmylin-R; hAmylinR
T1 sequence (looked up) 1: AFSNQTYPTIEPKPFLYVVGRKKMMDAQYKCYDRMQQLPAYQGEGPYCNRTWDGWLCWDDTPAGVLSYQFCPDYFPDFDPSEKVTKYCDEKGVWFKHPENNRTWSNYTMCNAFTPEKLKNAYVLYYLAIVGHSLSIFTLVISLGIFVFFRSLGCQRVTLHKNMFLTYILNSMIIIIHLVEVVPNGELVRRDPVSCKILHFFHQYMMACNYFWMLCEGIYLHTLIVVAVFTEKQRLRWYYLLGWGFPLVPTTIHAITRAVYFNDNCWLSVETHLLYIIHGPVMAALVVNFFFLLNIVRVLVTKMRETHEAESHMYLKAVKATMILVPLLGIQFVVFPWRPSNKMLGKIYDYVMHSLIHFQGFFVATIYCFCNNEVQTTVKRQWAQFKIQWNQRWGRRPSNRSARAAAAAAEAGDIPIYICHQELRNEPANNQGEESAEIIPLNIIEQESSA
T1 sequence (looked up) 2: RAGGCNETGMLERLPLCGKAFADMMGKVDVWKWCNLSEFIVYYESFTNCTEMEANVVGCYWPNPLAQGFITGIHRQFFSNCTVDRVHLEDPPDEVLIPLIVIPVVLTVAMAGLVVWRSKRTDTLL
Method: The binding assay was performed using scintillation proximity assay (SPA) beads (RPNQ0001) from PerkinElmer and cell membranes from the Amylin 3(a)/CRE-luc cells (as described in Assay (II)) were used. Membranes were prepared in the following way; the cells were rinsed with PBS and incubated with Versene for approximately 5 min before harvesting. The cells were flushed with PBS and the cell-suspension was centrifuged for 5 min at 1000 rpm. Cells were homogenized (ultrathurrax) in a buffer containing 20 mM Na-HEPES and 10 mM EDTA (pH 7.4) and centrifuged at 20.000 rpm for 15 min. The resulting pellet was resuspended, homogenized and centrifuged (20.000 rpm, 15 min) in a buffer containing 20 mM Na-HEPES and 0.1 mM EDTA (pH 7.4, buffer 2). The resulting pellet was resuspended in buffer 2 and protein concentration was measured (BCA protein Assay, Pierce). The homogenate was kept cold during the whole procedure. The membranes were kept at −80° C. until use. The assay was performed in a 384 well Optiplate (PerkinElmer) in a total volume of 40 ul. Membranes were mixed with SPA beads. Final concentration of membranes 35 ng/μL final and SPA beads was 0.05 mg/well. Test-compounds were dissolved in DMSO and further diluted in assay buffer (50 mM Hepes, pH 7.4, 1 mM CaCl2, 5 mM MgCl₂, 0.1% OA and 0.02% Tween20). […] The final mixture was incubated with shaking at 400 rpm for 120 min at 25° C. prior to centrifugation (1500 rpm, 10 min). Samples were analyzed on TopCounter™ (Packard). The IC₅₀ was calculated using (one site binding competition analysis) GraphPad Prism5 as a measure of receptor affinity.

[2] = biological target: T1, human amylin receptor (amylin 3(a) …); experiment: cell-based or functional assay
[3] = biological target: T2, human calcitonin receptor (human, UniProt P30988 25-474); experiment: cell-based or functional assay
T2 sequence (looked up): T1 sequence (looked up) 1

IC50 [1]: 1.18 nM
hAmylin-R funct. EC50 [2]: 0.224 nM
Ratio hCT/hAmylin funct. [3]: 12
hCTR funct. EC50 [3]: 2.7 nM
B1: N^ε1-[(4S)-4-carboxy-4-[[(4S)-4-carboxy-4-(19-carboxynonadecanoylamino)butanoyl]amino]butanoyl]-[Asp14,Arg17,Pro21,Pro26,Asp35]-h-amylin (peptide)
peptide: K([γGlu-γGlu-C20 diacid])CNTATCATQRLADFLRHSSPNFGAPLSSTNVGSDTY-NH2
modifications: disulfide 2-7; N-terminus assumed
SMILES: CC(C)C[C@H](NC(=O)[C@H](CCCNC(=N)N)NC(=O)[C@H](CCC(N)=O)NC(=O)[C@@H](NC(=O)[C@H](C)NC(=O)[C@@H]1CSSC[C@H](NC(=O)[C@@H](N)CCCCNC(=O)CC[C@H](NC(=O)CC[C@H](NC(=O)CCCCCCCCCCCCCCCCCCC(=O)O)C(=O)O)C(=O)O)C(=O)N[C@@H](CC(N)=O)C(=O)N[C@@H]([C@@H](C)O)C(=O)N[C@@H](C)C(=O)N[C@@H]([C@@H](C)O)C(=O)N1)[C@@H](C)O)C(=O)N[C@@H](C)C(=O)N[C@@H](CC(=O)O)C(=O)N[C@@H](Cc1ccccc1)C(=O)N[C@@H](CC(C)C)C(=O)N[C@@H](CCCNC(=N)N)C(=O)N[C@@H](Cc1c[nH]cn1)C(=O)N[C@@H](CO)C(=O)N[C@@H](CO)C(=O)N1CCC[C@H]1C(=O)N[C@@H](CC(N)=O)C(=O)N[C@@H](Cc1ccccc1)C(=O)NCC(=O)N[C@@H](C)C(=O)N1CCC[C@H]1C(=O)N[C@@H](CC(C)C)C(=O)N[C@@H](CO)C(=O)N[C@@H](CO)C(=O)N[C@H](C(=O)N[C@@H](CC(N)=O)C(=O)N[C@H](C(=O)NCC(=O)N[C@@H](CO)C(=O)N[C@@H](CC(=O)O)C(=O)N[C@H](C(=O)N[C@@H](Cc1ccc(O)cc1)C(N)=O)[C@@H](C)O)C(C)C)[C@@H](C)O
notes: also called compound 1

IC50 [1]: 1.13 nM
hAmylin-R funct. EC50 [2]: 0.205 nM
Ratio hCT/hAmylin funct. [3]: 6.7
hCTR funct. EC50 [3]: 1.38 nM
B2: N^ε1-[(4S)-4-carboxy-4-[[(4S)-4-carboxy-4-(19-carboxynonadecanoylamino)butanoyl]amino]butanoyl]-[Asp14,Arg17,Pro22,Pro26,Asp35]-h-amylin (peptide)
peptide: K([γGlu-γGlu-C20 diacid])CNTATCATQRLADFLRHSSNPFGAPLSSTNVGSDTY-NH2
modifications: disulfide 2-7; N-terminus assumed
SMILES: CC(C)C[C@H](NC(=O)[C@H](CCCNC(=N)N)NC(=O)[C@H](CCC(N)=O)NC(=O)[C@@H](NC(=O)[C@H](C)NC(=O)[C@@H]1CSSC[C@H](NC(=O)[C@@H](N)CCCCNC(=O)CC[C@H](NC(=O)CC[C@H](NC(=O)CCCCCCCCCCCCCCCCCCC(=O)O)C(=O)O)C(=O)O)C(=O)N[C@@H](CC(N)=O)C(=O)N[C@@H]([C@@H](C)O)C(=O)N[C@@H](C)C(=O)N[C@@H]([C@@H](C)O)C(=O)N1)[C@@H](C)O)C(=O)N[C@@H](C)C(=O)N[C@@H](CC(=O)O)C(=O)N[C@@H](Cc1ccccc1)C(=O)N[C@@H](CC(C)C)C(=O)N[C@@H](CCCNC(=N)N)C(=O)N[C@@H](Cc1c[nH]cn1)C(=O)N[C@@H](CO)C(=O)N[C@@H](CO)C(=O)N[C@@H](CC(N)=O)C(=O)N1CCC[C@H]1C(=O)N[C@@H](Cc1ccccc1)C(=O)NCC(=O)N[C@@H](C)C(=O)N1CCC[C@H]1C(=O)N[C@@H](CC(C)C)C(=O)N[C@@H](CO)C(=O)N[C@@H](CO)C(=O)N[C@H](C(=O)N[C@@H](CC(N)=O)C(=O)N[C@H](C(=O)NCC(=O)N[C@@H](CO)C(=O)N[C@@H](CC(=O)O)C(=O)N[C@H](C(=O)N[C@@H](Cc1ccc(O)cc1)C(N)=O)[C@@H](C)O)C(C)C)[C@@H](C)O
notes: also called compound 3
